Literature values as cited in article PMC3479961.

Tests used:
Test in all cases: surface plasmon resonance
plasmin (Homo sapiens) = plasmin (Homo sapiens) (UniProt P00747)
tPA (Homo sapiens) = tPA (Homo sapiens) (UniProt P00750)
[1] = target: plasminogen (Homo sapiens) (UniProt P00747)

Chain of UniProt P00750 (P00750 36-562): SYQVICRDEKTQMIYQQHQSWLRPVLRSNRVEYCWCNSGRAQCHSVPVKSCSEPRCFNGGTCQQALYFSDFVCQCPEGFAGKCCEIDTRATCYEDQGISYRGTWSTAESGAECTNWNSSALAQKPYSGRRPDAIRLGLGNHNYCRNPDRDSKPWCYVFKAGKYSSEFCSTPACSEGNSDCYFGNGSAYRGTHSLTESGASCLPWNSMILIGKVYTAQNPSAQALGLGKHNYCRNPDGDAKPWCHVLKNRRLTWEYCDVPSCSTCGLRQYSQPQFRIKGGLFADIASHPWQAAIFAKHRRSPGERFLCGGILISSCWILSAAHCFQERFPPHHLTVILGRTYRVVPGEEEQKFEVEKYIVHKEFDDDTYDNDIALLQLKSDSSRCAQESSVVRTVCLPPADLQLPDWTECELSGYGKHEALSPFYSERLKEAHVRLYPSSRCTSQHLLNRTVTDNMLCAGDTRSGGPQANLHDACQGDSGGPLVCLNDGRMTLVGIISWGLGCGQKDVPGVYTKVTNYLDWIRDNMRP

- Kd (plasmin (Homo sapiens)): 0.36 µM
- Kd (tPA (Homo sapiens)): 0.45 µM
- Kd [1]: 1.81 µM
Substance: S100A10 (from UniProt P60903)
